Experimental data reported in IntAct's records for PubMed 25910212.

B1: Emerin (Homo sapiens), P50402 (parent)
chain: MDNYADLSDTELTTLLRRYNIPHGPVVGSTRRLYEKKIFEYETQRRRLSPPSSSAASSYSFSDLNSTRGDADMYDLPKKEDALLYQSKGYNDDYYEESYFTTRTYGEPESAGPSRAVRQSVTSFPDADAFHHQVHDDDLLSSSEEECKDRERPMYGRDSAYQSITHYRPVSASRSSLDLSYYPTSSSTSFMSSSSSSSSWLTRRAIRPENRAPGAGLGQDRQVPLWGQLLLFLVFVIVLFFIYHFMQAEEGNPF
B2: Meiotic recombination protein DMC1/LIM15 homolog (Homo sapiens), Q14565 (parent)
chain: MKEDQVVAEEPGFQDEEESLFQDIDLLQKHGINVADIKKLKSVGICTIKGIQMTTRRALCNVKGLSEAKVDKIKEAANKLIEPGFLTAFEYSEKRKMVFHITTGSQEFDKLLGGGIESMAITEAFGEFRTGKTQLSHTLCVTAQLPGAGGYPGGKIIFIDTENTFRPDRLRDIADRFNVDHDAVLDNVLYARAYTSEHQMELLDYVAAKFHEEAGIFKLLIIDSIMALFRVDFSGRGELAERQQKLAQMLSRLQKISEEYNVAVFVTNQMTADPGATMTFQADPKKPIGGHILAHASTTRISLRKGRGELRIAKIYDSPEMPENEATFAITAGGIGDAKE
partner: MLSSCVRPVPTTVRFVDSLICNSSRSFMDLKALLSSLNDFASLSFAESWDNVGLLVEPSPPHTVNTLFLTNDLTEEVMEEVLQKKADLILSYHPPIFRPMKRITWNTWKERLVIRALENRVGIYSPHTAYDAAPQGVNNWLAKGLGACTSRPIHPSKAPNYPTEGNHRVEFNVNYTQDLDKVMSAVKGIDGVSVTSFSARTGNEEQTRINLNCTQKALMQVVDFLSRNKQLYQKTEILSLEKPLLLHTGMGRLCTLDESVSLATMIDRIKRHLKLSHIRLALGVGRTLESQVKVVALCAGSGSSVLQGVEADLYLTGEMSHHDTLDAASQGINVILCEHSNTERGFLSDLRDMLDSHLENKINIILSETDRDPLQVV
B3: Tribbles homolog 3 (Homo sapiens), Q96RU7 (parent)
chain: MRATPLAAPAGSLSRKKRLELDDNLDTERPVQKRARSGPQPRLPPCLLPLSPPTAPDRATAVATASRLGPYVLLEPEEGGRAYQALHCPTGTEYTCKVYPVQEALAVLEPYARLPPHKHVARPTEVLAGTQLLYAFFTRTHGDMHSLVRSRHRIPEPEAAVLFRQMATALAHCHQHGLVLRDLKLCRFVFADRERKKLVLENLEDSCVLTGPDDSLWDKHACPAYVGPEILSSRASYSGKAADVWSLGVALFTMLAGHYPFQDSEPVLLFGKIRRGAYALPAGLSAPARCLVRCLLRREPAERLTATGILLHPWLRQDPMPLAPTRSHLWEAAQVVPDGLGLDEAREEEGDREVVLYG
B4: Phakinin (Homo sapiens), Q13515 (parent)
chain: MSERRVVVDLPTSASSSMPLQRRRASFRGPRSSSSLESPPASRTNAMSGLVRAPGVYVGTAPSGCIGGLGARVTRRALGISSVFLQGLRSSGLATVPAPGLERDHGAVEDLGGCLVEYMAKVHALEQVSQELETQLRMHLESKATRSGNWGALRASWASSCQQVGEAVLENARLMLQTETIQAGADDFKERYENEQPFRKAAEEEINSLYKVIDEANLTKMDLESQIESLKEELGSLSRNYEEDVKLLHKQLAGCELEQMDAPIGTGLDDILETIRIQWERDVEKNRVEAGALLQAKQQAEVAHMSQTQEEKLAAALRVELHNTSCQVQSLQAETESLRALKRGLENTLHDAKHWHDMELQNLGAVVGRLEAELREIRAEAEQQQQERAHLLARKCQLQKDVASYHALLDREESG
B5: Krev interaction trapped protein 1 (Homo sapiens), O00522 (parent)
chain: MGNPENIEDAYVAVIRPKNTASLNSREYRAKSYEILLHEVPIEGQKKKRKKVLLETKLQGNSEITQGILDYVVETTKPISPANQGIRGKRVVLMKKFPLDGEKMGREASLFIVPSVVKDNTKYTYTPGCPIFYCLQDIMRVCSESSTHFATLTARMLIALDKWLDERHAQSHFIPALFRPSPLERIKTNVINPAYATESGQTENSLHMGYSALEIKSKMLALEKADTCIYNPLFGSDLQYTNRVDKVVINPYFGLGAPDYSKIQIPKQEKWQRSMSSVTEDKERQWVDDFPLHRSACEGDSELLSRLLSERFSVNQLDSDHWAPIHYACWYGKVEATRILLEKGKCNPNLLNGQLSSPLHFAAGGGHAEIVQILLNHPETDRHITDQQGRSPLNICEENKQNNWEEAAKLLKEAINKPYEKVRIYRMDGSYRSVELKHGNNTTVQQIMEGMRLSQETQQYFTIWICSENLSLQLKPYHKPLQHVRDWPEILAELTNLDPQRETPQLFLRRDVRLPLEVEKQIEDPLAILILFDEARYNLLKGFYTAPDAKLITLASLLLQIVYGNYESKKHKQGFLNEENLKSIVPVTKLKSKAPHWTNRILHEYKNLSTSEGVSKEMHHLQRMFLQNCWEIPTYGAAFFTGQIFTKASPSNHKVIPVYVGVNIKGLHLLNMETKALLISLKYGCFMWQLGDTDTCFQIHSMENKMSFIVHTKQAGLVVKLLMKLNGQLMPTERNS
B6: Fibulin-5 (Homo sapiens), Q9UBX5 (parent)
chain: MPGIKRILTVTILALCLPSPGNAQAQCTNGFDLDRQSGQCLDIDECRTIPEACRGDMMCVNQNGGYLCIPRTNPVYRGPYSNPYSTPYSGPYPAAAPPLSAPNYPTISRPLICRFGYQMDESNQCVDVDECATDSHQCNPTQICINTEGGYTCSCTDGYWLLEGQCLDIDECRYGYCQQLCANVPGSYSCTCNPGFTLNEDGRSCQDVNECATENPCVQTCVNTYGSFICRCDPGYELEEDGVHCSDMDECSFSEFLCQHECVNQPGTYFCSCPPGYILLDDNRSCQDINECEHRNHTCNLQQTCYNLQGGFKCIDPIRCEEPYLRISDNRCMCPAENPGCRDQPFTILYRDMDVVSGRSVPADIFQMQATTRYPGAYYIFQIKSGNEGREFYMRQTGPISATLVMTRPIKGPREIQLDLEMITVNTVINFRGSSVIRLRIYVSQYPF
partner: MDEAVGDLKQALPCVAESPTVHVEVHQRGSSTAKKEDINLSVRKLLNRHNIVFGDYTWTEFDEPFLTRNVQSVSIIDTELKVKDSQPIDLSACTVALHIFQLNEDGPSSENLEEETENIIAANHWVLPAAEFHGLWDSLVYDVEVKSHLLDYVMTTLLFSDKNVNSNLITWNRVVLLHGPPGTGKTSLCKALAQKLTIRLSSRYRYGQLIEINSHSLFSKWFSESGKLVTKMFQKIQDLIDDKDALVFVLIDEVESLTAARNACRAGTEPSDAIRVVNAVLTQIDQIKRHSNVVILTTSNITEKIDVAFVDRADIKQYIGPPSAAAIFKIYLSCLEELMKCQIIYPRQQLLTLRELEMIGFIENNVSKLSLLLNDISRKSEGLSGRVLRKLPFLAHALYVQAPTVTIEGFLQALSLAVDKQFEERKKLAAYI
B7: Carbonic anhydrase-related protein (Homo sapiens), P35219 (parent)
chain: MADLSFIEDTVAFPEKEEDEEEEEEGVEWGYEEGVEWGLVFPDANGEYQSPINLNSREARYDPSLLDVRLSPNYVVCRDCEVTNDGHTIQVILKSKSVLSGGPLPQGHEFELYEVRFHWGRENQRGSEHTVNFKAFPMELHLIHWNSTLFGSIDEAVGKPHGIAIIALFVQIGKEHVGLKAVTEILQDIQYKGKSKTIPCFNPNTLLPDPLLRDYWVYEGSLTIPPCSEGVTWILFRYPLTISQLQIEEFRRLRTHVKGAELVEGCDGILGDNFRPTQPLSDRVIRAAFQ
partner: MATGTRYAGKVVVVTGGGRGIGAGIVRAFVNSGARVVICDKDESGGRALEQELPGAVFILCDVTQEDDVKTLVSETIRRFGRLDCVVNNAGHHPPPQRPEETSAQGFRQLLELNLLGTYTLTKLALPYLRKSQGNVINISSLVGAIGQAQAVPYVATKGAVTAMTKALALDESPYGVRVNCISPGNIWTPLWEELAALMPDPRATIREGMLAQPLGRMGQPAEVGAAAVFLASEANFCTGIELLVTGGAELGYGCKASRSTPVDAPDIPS
B8: EGF-containing fibulin-like extracellular matrix protein 1 (Homo sapiens), Q12805 (parent)
chain: MLKALFLTMLTLALVKSQDTEETITYTQCTDGYEWDPVRQQCKDIDECDIVPDACKGGMKCVNHYGGYLCLPKTAQIIVNNEQPQQETQPAEGTSGATTGVVAASSMATSGVLPGGGFVASAAAVAGPEMQTGRNNFVIRRNPADPQRIPSNPSHRIQCAAGYEQSEHNVCQDIDECTAGTHNCRADQVCINLRGSFACQCPPGYQKRGEQCVDIDECTIPPYCHQRCVNTPGSFYCQCSPGFQLAANNYTCVDINECDASNQCAQQCYNILGSFICQCNQGYELSSDRLNCEDIDECRTSSYLCQYQCVNEPGKFSCMCPQGYQVVRSRTCQDINECETTNECREDEMCWNYHGGFRCYPRNPCQDPYILTPENRCVCPVSNAMCRELPQSIVYKYMSIRSDRSVPSDIFQIQATTIYANTINTFRIKSGNENGEFYLRQTSPVSAMLVLVKSLSGPREHIVDLEMLTVSSIGTFRTSSVLRLTIIVGPFSF
B9: Probetacellulin (Homo sapiens), P35070 (parent)
chain: MDRAARCSGASSLPLLLALALGLVILHCVVADGNSTRSPETNGLLCGDPEENCAATTTQSKRKGHFSRCPKQYKHYCIKGRCRFVVAEQTPSCVCDEGYIGARCERVDLFYLRGDRGQILVICLIAVMVVFIILVIGVCTCCHPLRKRRKRKKKEEEMETLGKDITPINEDIEETNIA
B10: Cyclin-dependent kinase 4 (Homo sapiens), P11802 (parent)
chain: MATSRYEPVAEIGVGAYGTVYKARDPHSGHFVALKSVRVPNGGGGGGGLPISTVREVALLRRLEAFEHPNVVRLMDVCATSRTDREIKVTLVFEHVDQDLRTYLDKAPPPGLPAETIKDLMRQFLRGLDFLHANCIVHRDLKPENILVTSGGTVKLADFGLARIYSYQMALTPVVVTLWYRAPEVLLQSTYATPVDMWSVGCIFAEMFRRKPLFCGNSEADQLGKIFDLIGLPPEDDWPRDVSLPRGAFPPRGPRPVQSVVPEMEESGAQLLLEMLTFNPHKRISAFRALQHSYLHKDEGNPE
partner: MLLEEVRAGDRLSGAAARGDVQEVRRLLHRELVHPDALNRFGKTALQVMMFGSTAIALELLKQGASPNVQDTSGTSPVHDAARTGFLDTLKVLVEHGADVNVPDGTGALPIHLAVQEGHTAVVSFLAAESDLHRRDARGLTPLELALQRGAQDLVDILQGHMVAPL

Variants of: B1
Settings: with vapb_human VAPB

Variant	effect of a mutation on the interaction
S54F	with no effect
D72V	with no effect

Variants of: B1
Settings: with tri42_human TRIM42, Q8IWZ5
tri42_human TRIM42, Q8IWZ5, sequence (Q8IWZ5 whole entry): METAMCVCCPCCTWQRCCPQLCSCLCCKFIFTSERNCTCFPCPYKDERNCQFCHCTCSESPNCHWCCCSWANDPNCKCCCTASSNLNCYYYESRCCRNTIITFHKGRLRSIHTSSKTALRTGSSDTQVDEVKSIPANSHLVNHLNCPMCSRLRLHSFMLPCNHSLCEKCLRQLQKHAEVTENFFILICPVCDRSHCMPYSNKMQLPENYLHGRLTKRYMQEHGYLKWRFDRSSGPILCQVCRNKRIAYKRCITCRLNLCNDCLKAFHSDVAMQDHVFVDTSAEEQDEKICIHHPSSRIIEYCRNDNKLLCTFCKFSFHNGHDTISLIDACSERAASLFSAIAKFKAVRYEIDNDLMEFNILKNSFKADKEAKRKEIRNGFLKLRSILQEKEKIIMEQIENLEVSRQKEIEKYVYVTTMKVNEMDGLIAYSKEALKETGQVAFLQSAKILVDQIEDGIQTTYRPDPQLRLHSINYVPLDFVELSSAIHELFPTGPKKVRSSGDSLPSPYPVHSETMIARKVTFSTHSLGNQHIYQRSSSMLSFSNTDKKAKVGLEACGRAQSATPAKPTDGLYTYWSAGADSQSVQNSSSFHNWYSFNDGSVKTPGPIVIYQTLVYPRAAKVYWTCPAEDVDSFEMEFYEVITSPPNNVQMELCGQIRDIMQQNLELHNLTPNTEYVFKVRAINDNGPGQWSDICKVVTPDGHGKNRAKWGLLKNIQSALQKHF

Variant	effect of a mutation on the interaction
S54F	with no effect
D72V	with no effect

Variants of: B1
Settings: with stx4_human STX4, Q12846
stx4_human STX4, Q12846, sequence (Q12846 whole entry): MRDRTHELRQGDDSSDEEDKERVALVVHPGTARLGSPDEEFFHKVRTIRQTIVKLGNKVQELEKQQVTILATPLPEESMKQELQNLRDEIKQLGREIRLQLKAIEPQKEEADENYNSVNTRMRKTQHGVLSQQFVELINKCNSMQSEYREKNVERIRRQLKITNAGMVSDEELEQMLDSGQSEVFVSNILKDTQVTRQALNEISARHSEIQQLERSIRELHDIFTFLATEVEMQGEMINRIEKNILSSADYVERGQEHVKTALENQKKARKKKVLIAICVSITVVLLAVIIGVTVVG

Variant	effect of a mutation on the interaction
S54F	with no effect
D72V	with no effect

Variants of: B1
Settings: with meox2_human MEOX2, P50222
Target sequence in this assay (P50222 whole entry): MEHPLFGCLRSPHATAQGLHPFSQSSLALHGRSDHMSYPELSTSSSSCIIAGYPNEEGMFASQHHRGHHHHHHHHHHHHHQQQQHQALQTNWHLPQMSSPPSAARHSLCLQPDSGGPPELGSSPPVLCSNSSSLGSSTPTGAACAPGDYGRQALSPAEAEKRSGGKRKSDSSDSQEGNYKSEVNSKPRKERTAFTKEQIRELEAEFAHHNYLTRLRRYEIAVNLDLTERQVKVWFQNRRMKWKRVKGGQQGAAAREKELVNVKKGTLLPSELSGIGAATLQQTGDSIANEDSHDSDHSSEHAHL

Variant	effect of a mutation on the interaction
S54F	with no effect
D72V	with no effect

Variants of: B1
Settings: with ccd33_human CCDC33, Q8N5R6
ccd33_human CCDC33, Q8N5R6, sequence (Q8N5R6 whole entry): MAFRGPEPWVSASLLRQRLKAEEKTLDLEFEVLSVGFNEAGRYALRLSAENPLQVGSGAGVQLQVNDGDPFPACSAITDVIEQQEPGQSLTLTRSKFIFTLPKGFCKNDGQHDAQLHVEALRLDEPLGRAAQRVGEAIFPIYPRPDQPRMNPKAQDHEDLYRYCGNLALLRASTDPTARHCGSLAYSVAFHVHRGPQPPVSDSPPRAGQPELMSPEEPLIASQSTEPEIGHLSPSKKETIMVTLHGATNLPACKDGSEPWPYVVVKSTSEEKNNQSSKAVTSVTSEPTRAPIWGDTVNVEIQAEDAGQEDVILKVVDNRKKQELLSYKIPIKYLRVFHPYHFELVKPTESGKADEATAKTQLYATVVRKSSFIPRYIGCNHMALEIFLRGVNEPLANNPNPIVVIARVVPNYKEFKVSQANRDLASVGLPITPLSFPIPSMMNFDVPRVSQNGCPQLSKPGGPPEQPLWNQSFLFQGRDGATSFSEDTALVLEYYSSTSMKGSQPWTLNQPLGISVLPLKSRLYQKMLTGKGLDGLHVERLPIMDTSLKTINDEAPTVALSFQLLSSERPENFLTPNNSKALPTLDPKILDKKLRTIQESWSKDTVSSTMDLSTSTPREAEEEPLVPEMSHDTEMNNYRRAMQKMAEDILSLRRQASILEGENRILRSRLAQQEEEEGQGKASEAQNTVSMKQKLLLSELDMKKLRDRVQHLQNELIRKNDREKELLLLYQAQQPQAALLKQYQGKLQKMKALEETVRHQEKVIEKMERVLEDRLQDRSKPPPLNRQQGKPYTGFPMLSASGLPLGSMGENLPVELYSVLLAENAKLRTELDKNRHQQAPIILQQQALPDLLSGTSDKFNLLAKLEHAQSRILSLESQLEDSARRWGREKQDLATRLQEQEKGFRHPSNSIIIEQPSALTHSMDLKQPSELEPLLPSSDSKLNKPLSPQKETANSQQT

Variant	effect of a mutation on the interaction
S54F	with no effect
D72V	with no effect

Variants of: B2
Settings: with nif3l_human NIF3L1, Q9GZT8

Variant	effect of a mutation on the interaction
M200V	disrupting interaction strength

Variants of: B3
Settings: with atf4_human ATF4, P18848
Target sequence in this assay (P18848 whole entry): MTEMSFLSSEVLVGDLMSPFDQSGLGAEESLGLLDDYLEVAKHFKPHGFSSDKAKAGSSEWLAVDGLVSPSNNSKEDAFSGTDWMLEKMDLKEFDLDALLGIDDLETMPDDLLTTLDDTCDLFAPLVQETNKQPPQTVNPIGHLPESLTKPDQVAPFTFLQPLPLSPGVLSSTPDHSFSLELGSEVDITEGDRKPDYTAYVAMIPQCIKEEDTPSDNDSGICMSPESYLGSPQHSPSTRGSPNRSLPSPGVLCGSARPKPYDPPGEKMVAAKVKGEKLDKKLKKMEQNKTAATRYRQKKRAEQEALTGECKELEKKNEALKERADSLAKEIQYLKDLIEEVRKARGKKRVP

Variant	effect of a mutation on the interaction
Q84R	with no effect

Variants of: B3
Settings: with mdfi_human MDFI

Variant	effect of a mutation on the interaction
Q84R	with no effect

Variants of: B4
Settings: with atf4_human ATF4, P18848
Target sequence in this assay (P18848 whole entry): as above

Variant	effect of a mutation on the interaction
A407D	with no effect
R339H	with no effect

Variants of: B4
Settings: with syce1_human SYCE1, Q8N0S2
syce1_human SYCE1, Q8N0S2, sequence (Q8N0S2 whole entry): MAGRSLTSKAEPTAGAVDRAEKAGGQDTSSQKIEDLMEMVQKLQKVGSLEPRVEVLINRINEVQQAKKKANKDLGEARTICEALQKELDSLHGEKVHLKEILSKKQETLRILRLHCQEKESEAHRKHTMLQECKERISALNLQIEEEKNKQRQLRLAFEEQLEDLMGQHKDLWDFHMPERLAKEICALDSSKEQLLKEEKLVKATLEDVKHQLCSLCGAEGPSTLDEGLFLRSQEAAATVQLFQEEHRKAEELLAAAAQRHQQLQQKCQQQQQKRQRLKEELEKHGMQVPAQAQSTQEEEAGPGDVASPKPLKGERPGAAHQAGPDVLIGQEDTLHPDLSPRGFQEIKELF

Variant	effect of a mutation on the interaction
A407D	with no effect
R339H	with no effect

Variants of: B5
Settings: with ccm2_human CCM2, Q9BSQ5
ccm2_human CCM2, Q9BSQ5, sequence (Q9BSQ5 whole entry): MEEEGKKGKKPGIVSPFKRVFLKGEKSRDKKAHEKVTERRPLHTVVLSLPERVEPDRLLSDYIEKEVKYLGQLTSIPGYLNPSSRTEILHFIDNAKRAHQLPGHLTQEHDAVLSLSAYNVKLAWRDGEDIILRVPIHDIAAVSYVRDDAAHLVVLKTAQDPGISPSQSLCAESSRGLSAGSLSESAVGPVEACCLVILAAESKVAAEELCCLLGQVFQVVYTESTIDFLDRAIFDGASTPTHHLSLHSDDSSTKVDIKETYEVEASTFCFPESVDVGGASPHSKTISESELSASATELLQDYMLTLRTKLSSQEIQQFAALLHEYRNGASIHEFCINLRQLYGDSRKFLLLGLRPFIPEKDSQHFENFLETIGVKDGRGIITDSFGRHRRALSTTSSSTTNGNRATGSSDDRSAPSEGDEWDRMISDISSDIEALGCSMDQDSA

Variant	effect of a mutation on the interaction
D137G	with no effect

Variants of: B6
Settings: with pch2_human TRIP13, Q15645

Variant	effect of a mutation on the interaction
V60L	disrupting interaction strength

Variants of: B7
Settings: with dhb14_human HSD17B14, Q9BPX1

Variant	effect of a mutation on the interaction
S100P	disrupting interaction strength

Variants of: B8
Settings: with sgta_human SGTA
Target sequence in this assay (O43765 whole entry): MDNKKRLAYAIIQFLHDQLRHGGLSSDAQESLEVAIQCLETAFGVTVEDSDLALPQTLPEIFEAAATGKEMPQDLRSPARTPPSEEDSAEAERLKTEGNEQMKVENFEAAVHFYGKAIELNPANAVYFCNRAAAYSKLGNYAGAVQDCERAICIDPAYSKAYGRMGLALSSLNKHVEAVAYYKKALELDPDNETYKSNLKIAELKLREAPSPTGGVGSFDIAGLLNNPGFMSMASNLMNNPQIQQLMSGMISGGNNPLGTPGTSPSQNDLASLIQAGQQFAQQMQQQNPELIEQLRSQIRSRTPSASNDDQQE

Variant	effect of a mutation on the interaction
R345W	with no effect

Variants of: B8
Settings: with meox2_human MEOX2, P50222
Target sequence in this assay (P50222 whole entry): as the sequence (P50222 whole entry) above

Variant	effect of a mutation on the interaction
R345W	with no effect

Variants of: B9
Settings: with sgta_human SGTA
Target sequence in this assay (O43765 whole entry): as the sequence (O43765 whole entry) above

Variant	effect of a mutation on the interaction
C7G	with no effect

Variants of: B10
Settings: with cdn2d_human CDKN2D

Variant	effect of a mutation on the interaction
R24H	with no effect
